Results reported in patent US11278600B2, “Human alpha-galactosidase variants” (Codexis, Inc., priority 2014, dated 2022).

Assays:
Assay type in all cases: biochemical
[1] = HTP-analysis of yeast culture supernatants, no challenge (MUGal hydrolysis); details: activity of the variant/activity of Rd2BB (SEQ ID NO: 10), yeast culture supernatant
Summary of the method: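 GLA variants were expressed in INVSc1 yeast grown in SD-Ura broth with glucose at 30° C., and culture supernatants were collected after 66-84 h. Supernatant was mixed with McIlvaine buffer pH 4.8 and MUGal (2 mM stock) in 50 mM citrate, 200 mM KCl, pH 4.6, incubated at 37° C. for 30-180 minutes, then quenched with sodium carbonate.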

[2] = HTP-analysis of supernatants pretreated with base (MUGal hydrolysis); details: challenge at pH 7.6; activity of the variant/activity of Rd2BB (SEQ ID NO: 10); yeast culture supernatant
Summary of the method: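 GLA variants were secreted by transformed INVSc1 yeast grown 66-84 h at 30° C. Supernatants were exposed to neutral-to-basic buffers (pH 7.0-9.7) at 37° C for 1-18 h, then assayed with MUGal in acidic citrate/McIlvaine buffer, with fluorescence read after quenching.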

[3] = HTP-analysis of supernatants pretreated with bovine serum (MUGal hydrolysis); details: activity of the variant/activity of Rd2BB (SEQ ID NO: 10), yeast culture supernatant
Summary of the method: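 Yeast INVSc1 culture supernatants containing secreted GLA variants were mixed with bovine serum (20:80) and held 1 h at 37° C. Serum-treated samples then reacted with MUGal (4 mM stock) in citrate/McIlvaine buffer (pH 4.3/4.8) for 180 min at 37° C., were quenched with sodium carbonate, and read by fluorescence (Ex 355, Em 448 nm).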

[4] = HTP-analysis of supernatants pretreated with acid (MUGal hydrolysis); details: challenge at pH 4.2; activity of the variant/activity of Rd2BB (SEQ ID NO: 10); yeast culture supernatant
Summary of the method: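 Supernatants from INVSc1 yeast secreting GLA variants were challenged at 37° C. for 1-3 h in McIlvaine buffer at pH 3.3-4.3. Residual activity was then measured on 4 mM MUGal substrate stock at pH 4.8 with citrate buffer pH 4.3, over 30-180 min at 37° C. Reactions were quenched with sodium carbonate and read by fluorescence (Ex 355/Em 448 nm).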

B1: 271 (protein)
chain: LDNGLARTPTMGWLHWERFMCNLDCQEEPDSCISEKLFMEMAERMVSEGWKDAGYEYLCIDDCWMAPQRDSEGRLQADPQRFPHGIRQLANYVHSKGLKLGIYADVGNKTCAGFPGSFGYYDIDAQTFADWGVDLLKFDGCYCDSLENLADGYKHMSLALNRTGRSIVYSCEWPLYMWPFQKPNYTGIRQYCNHWRNFADIDDSWASIKSILDWTSFNQERIVDVAGPGGWNDPDMLVIGNFGLSWNQQVTQMALWAIMAAPLFMSNDLRHISPQAKALLQDKDVIAINQDPLGKQGYQLRQGDNFEVWERPLSGLAWAVAMINRQEIGGPRSYTIPVASLGKGVACNPGCFITQLLPVKRKLGFYEWTSRLRSHINPTGTVLLQLENTMQMSLKDLL
modifications: Synthetic Polypeptide sequence of Variant No. 271 of mature Human GLA
Relative Activity of GLA Variants After No Challenge (NC) [1]: − (− = <0.5 relative activity over Rd2BB (SEQ ID NO: 10)) | Relative Activity of GLA Variants After Challenge at pH 7.6 [2]: + (+ = 0.5 to 1.5 relative activity over Rd2BB (SEQ ID NO: 10)) | Relative Activity of GLA Variants After Challenge with Serum [3]: + (+ = 0.5 to 1.5 relative activity over Rd2BB (SEQ ID NO: 10)) | Relative Activity of GLA Variants After Challenge at pH 4.2 [4]: + (+ = 0.5 to 1.5 relative activity over Rd2BB (SEQ ID NO: 10))

B2: 277 (protein)
chain: LDNGLARTPTMGWLHWERFMCNLDCQEEPDSCISEKLFMEMAERMVSEGWKDAGYEYLCIDDCWMAPQRDSEGRLQADPQRFPHGIRQLANYVHSKGLKLGIYADVGNKTCAGFPGSFGYYDIDAQTFADWGVDLLKFDGCYCDSLENLADGYKHMSLALNRTGRSIVYSCEWPLYMWPFQKPNYTEIRQYCNHWRNFADIDDSWASIKSILDWTSRNQERIVDVAGPGGWNDPDMLVIGNFGLSWDQQVTQMALWAIMAAPLFMSNDLRHISPQAKALLQDKDVIAINQDPLGKQGYQLRQGDNFEVWERPLSGDAWAVAMINRQEIGGPRSYTIPVASLGKGVACNPACFITQLLPVKRKLGFYDWDSRLRSHINPTGTVLLQLENTMQMSLKDLL
modifications: Synthetic Polypeptide sequence of Variant No. 277 of mature Human GLA
Relative Activity of GLA Variants After No Challenge (NC) [1]: +++ (+++ = >2.5 relative activity over Rd2BB (SEQ ID NO: 10)) | Relative Activity of GLA Variants After Challenge at pH 7.6 [2]: +++ (+++ = >2.5 relative activity over Rd2BB (SEQ ID NO: 10)) | Relative Activity of GLA Variants After Challenge with Serum [3]: +++ (+++ = >2.5 relative activity over Rd2BB (SEQ ID NO: 10)) | Relative Activity of GLA Variants After Challenge at pH 4.2 [4]: +++ (+++ = >2.5 relative activity over Rd2BB (SEQ ID NO: 10))

B3: 275 (protein)
chain: LDNGLARTPTMGWLHWERFMCNLDCQEEPDSCISEKLFMEMAERMVSEGWKDAGYEYLCIDDCWMAPQRDSEGRLQADPQRFPHGIRQLANYVHSKGLKLGIYADVGNKTCAGFPGSFGYYDIDAQTFADWGVDLLKFDGCYCDSLENLADGYKHMSLALNRTGRSIVYSCEWPLYMWPFQKPNYTEIRQYCNHWRNFADIDDSWASIKSILDWTSRNQERIVDVAGPGGWNDPDMLVIGNFGLSWDQQVTQMALWAIMAAPLFMSNDLRHISPQAKALLQDKDVIAINQDPLGKQGYQLRQGDNFEVWERPLSGLAWAVAMINRQEIGGPRSYTIPVASLGKGVACNPACFITQLLPVKRKLGFYEWTSRLRSHINPTGTVLLQLENTMQMSLKDLL
modifications: Synthetic Polypeptide sequence of Variant No. 275 of mature Human GLA
Relative Activity of GLA Variants After No Challenge (NC) [1]: ++ (++ = 1.5 to 2.5 relative activity over Rd2BB (SEQ ID NO: 10)) | Relative Activity of GLA Variants After Challenge at pH 7.6 [2]: ++ (++ = 1.5 to 2.5 relative activity over Rd2BB (SEQ ID NO: 10)) | Relative Activity of GLA Variants After Challenge with Serum [3]: ++ (++ = 1.5 to 2.5 relative activity over Rd2BB (SEQ ID NO: 10)) | Relative Activity of GLA Variants After Challenge at pH 4.2 [4]: ++ (++ = 1.5 to 2.5 relative activity over Rd2BB (SEQ ID NO: 10))

B4: 272 (protein)
chain: LDNGLARTPTMGWLHWERFMCNLDCQEEPDSCISEKLFMEMAERMVSEGWKDAGYEYLCIDDCWMAPQRDSEGRLQADPQRFPHGIRQLANYVHSKGLKLGIYADVGNKTCAGFPGSFGYYDIDAQTFADWGVDLLKFDGCYCDSLENLADGYKHMSLALNRTGRSIVYSCEWPLYMWPFQKPNYTEIRQYCNHWRNFADIDDSWASIKSILDWTSFNQERIVDVAGPGGWNDPDMLVIGNFGLSWNQQVTQMALWAIMAAPLFMSNDLRHISPQAKALLQDKDVIAINQDPLGKQGYQLRQGDNFEVWERPLSGLAWAVAMINRQEIGGPRSYTIAVASLGKGVACNPACFITQLLPVKRKLGFYEWTSRLRSHINPTGTVLLQLENTMQMSLKDLL
modifications: Synthetic Polypeptide sequence of Variant No. 272 of mature Human GLA
Relative Activity of GLA Variants After No Challenge (NC) [1]: + (+ = 0.5 to 1.5 relative activity over Rd2BB (SEQ ID NO: 10)) | Relative Activity of GLA Variants After Challenge at pH 7.6 [2]: + (+ = 0.5 to 1.5 relative activity over Rd2BB (SEQ ID NO: 10)) | Relative Activity of GLA Variants After Challenge with Serum [3]: + (+ = 0.5 to 1.5 relative activity over Rd2BB (SEQ ID NO: 10)) | Relative Activity of GLA Variants After Challenge at pH 4.2 [4]: + (+ = 0.5 to 1.5 relative activity over Rd2BB (SEQ ID NO: 10))

B5: 273 (protein)
chain: LDNGLARTPTMGWLHWERFMCNLDCQEEPDSCISEKLFMEMAERMVSEGWKDAGYEYLCIDDCWMAPQRDSEGRLQADPQRFPHGIRQLANYVHSKGLKLGIYADVGNKTCAGFPGSFGYYDIDAQTFADWGVDLLKFDGCYCDSLENLADGYKHMSLALNRTGRSIVYSCEWPLYMWPFQKPNYTEIRQYCNHWRNFADIDDSWASIKSILDWTSFNQERIVDVAGPGGWNDPDMLVIGNFGLSWNQQVTQMALWAIMAAPLFMSNDLRHISPQAKALLQDKDVIAINQDPLGKQGYQLRQGDNFEVWERPLSGLAWAVAMINRQEIGGPRSYTIAVASLGKGVACNPACFITQLLPVKRKLGFYDWDSRLRSHINPTGTVLLQLENTMQMSLKDLL
modifications: Synthetic Polypeptide sequence of Variant No. 273 of mature Human GLA
Relative Activity of GLA Variants After No Challenge (NC) [1]: + (+ = 0.5 to 1.5 relative activity over Rd2BB (SEQ ID NO: 10)) | Relative Activity of GLA Variants After Challenge at pH 7.6 [2]: + (+ = 0.5 to 1.5 relative activity over Rd2BB (SEQ ID NO: 10)) | Relative Activity of GLA Variants After Challenge with Serum [3]: + (+ = 0.5 to 1.5 relative activity over Rd2BB (SEQ ID NO: 10)) | Relative Activity of GLA Variants After Challenge at pH 4.2 [4]: + (+ = 0.5 to 1.5 relative activity over Rd2BB (SEQ ID NO: 10))

B6: 276 (protein)
chain: LDNGLARTPTMGWLHWERFMCNLDCQEEPDSCISEKLFMEMAERMVSEGWKDAGYEYLCIDDCWMAPQRDSEGRLQADPQRFPHGIRQLANYVHSKGLKLGIYADVGNKTCAGFPGSFGYYDIDAQTFADWGVDLLKFDGCYCDSLENLADGYKHMSLALNRTGRSIVYSCEWPLYMWPFQKPNYTEIRQYCNHWRNFADIDDSWASIKSILDWTSRNQERIVDVAGPGGWNDPDMLVIGNFGLSWDQQVTQMALWAIMAAPLFMSNDLRHISPQAKALLQDKDVIAINQDPLGKQGYQLRQGDNFEVWERPLSGDAWAVAMINRQEIGGPRSYTIPVASLGKGVACNPGCFITQLLPVKRKLGFYDWDSRLRSHINPTGTVLLQLENTMQMSLKDLL
modifications: Synthetic Polypeptide sequence of Variant No. 276 of mature Human GLA
Relative Activity of GLA Variants After No Challenge (NC) [1]: +++ (+++ = >2.5 relative activity over Rd2BB (SEQ ID NO: 10)) | Relative Activity of GLA Variants After Challenge at pH 7.6 [2]: +++ (+++ = >2.5 relative activity over Rd2BB (SEQ ID NO: 10)) | Relative Activity of GLA Variants After Challenge with Serum [3]: +++ (+++ = >2.5 relative activity over Rd2BB (SEQ ID NO: 10)) | Relative Activity of GLA Variants After Challenge at pH 4.2 [4]: +++ (+++ = >2.5 relative activity over Rd2BB (SEQ ID NO: 10))

B7: 274 (protein)
chain: LDNGLARTPTMGWLHWERFMCNLDCQEEPDSCISEKLFMEMAERMVSEGWKDAGYEYLCIDDCWMAPQRDSEGRLQADPQRFPHGIRQLANYVHSKGLKLGIYADVGNKTCAGFPGSFGYYDIDAQTFADWGVDLLKFDGCYCDSLENLADGYKHMSLALNRTGRSIVYSCEWPLYMWPFQKPNYTEIRQYCNHWRNFADIDDSWASIKSILDWTSRNQERIVDVAGPGGWNDPDMLVIGNFGLSWNQQVTQMALWAIMAAPLFMSNDLRHISPQAKALLQDKDVIAINQDPLGKQGYQLRQGDNFEVWERPLSGLAWAVAMINRQEIGGPRSYTIAVASLGKGVACNPGCFITQLLPVKRKLGFYEWTSRLRSHINPTGTVLLQLENTMQMSLKDLL
modifications: Synthetic Polypeptide sequence of Variant No. 274 of mature Human GLA
Relative Activity of GLA Variants After No Challenge (NC) [1]: + (+ = 0.5 to 1.5 relative activity over Rd2BB (SEQ ID NO: 10)) | Relative Activity of GLA Variants After Challenge at pH 7.6 [2]: + (+ = 0.5 to 1.5 relative activity over Rd2BB (SEQ ID NO: 10)) | Relative Activity of GLA Variants After Challenge with Serum [3]: + (+ = 0.5 to 1.5 relative activity over Rd2BB (SEQ ID NO: 10)) | Relative Activity of GLA Variants After Challenge at pH 4.2 [4]: + (+ = 0.5 to 1.5 relative activity over Rd2BB (SEQ ID NO: 10))
